Source: US20240167070A1 (NANYANG TECHNOLOGICAL UNIVERSITY, published 2024)
Starred links: 1 amine or outer side, 2 acyl side, 3 side chain; linkers in the order of their positions; H or OH if unused. Non-standard residues stand in square brackets, D forms with d. Primed or numbered codes have the meaning given here. No end group written: not given here. Asn(OH)″ = N^γ-hydroxy-L-asparagine (L-aspartic acid β-hydroxamate), O=C(C[C@H](N[*:1])C(=O)[*:2])NO; Asn(OH) = N-gamma-hydroxy-L-asparagine, O=C(C[C@H](N[*:1])C(=O)[*:2])NO[*:3]

How the values were obtained:
[1] = target: T1, matrix metalloprotease 2 (MMP2) (UniProt P08253 110-660, limits assumed); assay: MMP2 FRET-substrate inhibition assay
T1 construct: also called matrix metalloproteinases 2
T1 sequence (looked up): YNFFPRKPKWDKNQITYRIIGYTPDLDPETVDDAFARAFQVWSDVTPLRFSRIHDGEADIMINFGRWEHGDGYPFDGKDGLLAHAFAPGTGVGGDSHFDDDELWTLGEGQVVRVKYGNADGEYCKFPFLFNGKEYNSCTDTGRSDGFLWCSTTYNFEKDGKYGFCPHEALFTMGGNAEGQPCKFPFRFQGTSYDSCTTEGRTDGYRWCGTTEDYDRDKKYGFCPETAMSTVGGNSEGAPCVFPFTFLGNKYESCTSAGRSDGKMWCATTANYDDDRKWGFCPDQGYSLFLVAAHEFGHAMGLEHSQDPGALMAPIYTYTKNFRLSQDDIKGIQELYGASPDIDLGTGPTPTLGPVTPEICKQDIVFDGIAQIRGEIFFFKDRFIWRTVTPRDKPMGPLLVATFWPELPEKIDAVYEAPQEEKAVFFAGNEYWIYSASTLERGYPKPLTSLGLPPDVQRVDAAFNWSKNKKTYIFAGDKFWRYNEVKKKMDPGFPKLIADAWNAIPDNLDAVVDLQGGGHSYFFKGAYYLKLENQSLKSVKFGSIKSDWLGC
Description: (§1) The inhibitory activity of the peptides was determined by measuring the MMPs' protease activity towards a FRET substrate. […] MMP2 was pre-incubated with the peptide inhibitors for 10 min before adding the substrate.

[2] = target: T1, matrix metalloprotease 2 (MMP2); assay: MMP2 and MMP9 FRET-substrate inhibition assays
Description: as §1

[3] = target: T1, matrix metalloprotease 2 (MMP2); assay: MMP2 FRET-substrate inhibition assay; Ki = IC50/(1+[S]0/Km)
Description: as §1

MMP9 = MMP9 (UniProt P14780 107-707, limits assumed); assay: MMP9 FRET-substrate inhibition assay; Ki = IC50/(1+[S]0/Km)
Chain of MMP9 (P14780 107-707 limits assumed): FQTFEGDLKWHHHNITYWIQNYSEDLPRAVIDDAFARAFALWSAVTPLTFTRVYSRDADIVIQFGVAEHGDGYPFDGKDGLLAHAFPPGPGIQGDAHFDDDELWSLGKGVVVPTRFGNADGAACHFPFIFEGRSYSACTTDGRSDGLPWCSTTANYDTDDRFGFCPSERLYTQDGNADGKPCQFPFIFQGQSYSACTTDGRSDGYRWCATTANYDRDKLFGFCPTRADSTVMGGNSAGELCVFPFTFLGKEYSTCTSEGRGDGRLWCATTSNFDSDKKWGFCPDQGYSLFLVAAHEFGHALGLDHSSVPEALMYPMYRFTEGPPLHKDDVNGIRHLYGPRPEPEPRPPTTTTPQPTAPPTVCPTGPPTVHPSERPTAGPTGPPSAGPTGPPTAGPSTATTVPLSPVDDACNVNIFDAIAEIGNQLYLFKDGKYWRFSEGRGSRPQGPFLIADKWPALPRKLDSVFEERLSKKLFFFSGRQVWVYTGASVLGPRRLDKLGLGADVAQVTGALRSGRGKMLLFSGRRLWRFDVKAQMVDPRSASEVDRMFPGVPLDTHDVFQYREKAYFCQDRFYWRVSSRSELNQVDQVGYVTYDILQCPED
Description: as §1

trypsin [4] = assay: cell-based or functional assay
Chain of trypsin (P00760 24-246): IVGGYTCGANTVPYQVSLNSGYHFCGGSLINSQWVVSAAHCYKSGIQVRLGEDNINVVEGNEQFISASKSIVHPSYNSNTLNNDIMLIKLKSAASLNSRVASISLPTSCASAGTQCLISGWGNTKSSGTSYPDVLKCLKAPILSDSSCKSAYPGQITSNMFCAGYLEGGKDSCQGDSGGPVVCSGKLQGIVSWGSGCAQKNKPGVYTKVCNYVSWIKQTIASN

trypsin [5] = assay: trypsin FRET-substrate inhibition assay; Ki = IC50/(1+[S]0/Km)
[6] = target: T1, matrix metalloprotease 2 (MMP2); assay: cell-based or functional assay

B1: Asn(OH)-RTD1 17, cyclo[SYCN(OH)CLCRRGVCRCICTI] (peptide)
peptide: cyclo(SYC[Asn(OH)]CLCRRGVCRCICTI)
modifications: disulfide (positions not given here); not fully specified (bridges); printed as cyclo[SYCN(OH)CLCRRGVCRCICTI]; also: oxidatively folded disulfides, pairing not given here
notes: also called peptide 17; grafted peptide 17
- fold better binding affinity against Asn-RTD-1 19 [1]: 13 fold
- fold better binding affinity against Asp-RTD-1 18 [1]: 2.3 fold
- fold improvement of Ki against the linear Asn(OH)-APP-IP peptide 9 [1]: 8.2 fold
- fold more potent towards MMP2 than MMP9 [2]: ~1000 fold
- Ki [3]: 2.8 nM
- Ki (MMP9): 2680 nM

B2: Asp-RTD-1 18, cyclo[SYCDCLCRRGVCRCICTI] (peptide)
peptide: cyclo(SYCDCLCRRGVCRCICTI)
modifications: disulfide (positions not given here); also: oxidatively folded, disulfide pairing not given here
notes: Obtained by NaIO4 oxidation of Asn(OH)-RTD-1 17; also called peptide 18
- Ki [3]: 6.5 nM
- Ki (MMP9): 3290 nM

B3: Asn-RTD-1 19, cyclo[SYCNCLCRRGVCRCICTI] (peptide)
peptide: cyclo(SYCNCLCRRGVCRCICTI)
modifications: disulfide (positions not given here); also: oxidatively folded disulfides, pairing not given here
notes: also called peptide 19
- Ki [3]: 36.5 nM
- Ki (MMP9): 5590 nM

B4: cyclic MCoTI-II, [GGVCPKILKKCRRDSDCPGACICRGNGYCGSGSD] (peptide)
peptide: cyclo(GGVCPKILKKCRRDSDCPGACICRGNGYCGSGSD)
modifications: not fully specified (bridges); also: three disulfide bonds, pairing not given here
notes: also called MCoTI-II 20; cyclo-MCoTI-II
- IC50 (trypsin [4]): 2.01 nM
- Ki (trypsin [5]): 0.18 nM

B5: cyclo[…(OH)ALMPSGA] (peptide)
peptide: cyclo(GSGISYGQ[Asn(OH)]ALMPSGA)
SMILES: CC[C@H](C)[C@@H]1NC(=O)CNC(=O)[C@H](CO)NC(=O)CNC(=O)[C@H](C)NC(=O)CNC(=O)[C@H](CO)NC(=O)[C@@H]2CCCN2C(=O)[C@H](CCSC)NC(=O)[C@H](CC(C)C)NC(=O)[C@H](C)NC(=O)[C@H](CC(=O)NO)NC(=O)[C@H](CCC(N)=O)NC(=O)CNC(=O)[C@H](Cc2ccc(O)cc2)NC(=O)[C@H](CO)NC1=O
notes: also called peptide 13
- IC50 [6]: 18400 nM
- Ki [3]: 12000 nM

B6: cyclo[SISYGQN(OH)ALMPG] (peptide)
peptide: cyclo(SISYGQ[Asn(OH)″]ALMPG)
SMILES: CC[C@H](C)[C@@H]1NC(=O)[C@H](CO)NC(=O)CNC(=O)[C@@H]2CCCN2C(=O)[C@H](CCSC)NC(=O)[C@H](CC(C)C)NC(=O)[C@H](C)NC(=O)[C@H](CC(=O)NO)NC(=O)[C@H](CCC(N)=O)NC(=O)CNC(=O)[C@H](Cc2ccc(O)cc2)NC(=O)[C@H](CO)NC1=O
- IC50 [6]: > 100000 nM

B7: cyclo[SGISYGQN(OH)ALMPSG] (peptide)
peptide: cyclo(SGISYGQ[Asn(OH)″]ALMPSG)
SMILES: CC[C@H](C)[C@@H]1NC(=O)CNC(=O)[C@H](CO)NC(=O)CNC(=O)[C@H](CO)NC(=O)[C@@H]2CCCN2C(=O)[C@H](CCSC)NC(=O)[C@H](CC(C)C)NC(=O)[C@H](C)NC(=O)[C@H](CC(=O)NO)NC(=O)[C@H](CCC(N)=O)NC(=O)CNC(=O)[C@H](Cc2ccc(O)cc2)NC(=O)[C@H](CO)NC1=O
notes: also called peptide 12
- IC50 [6]: 10700 nM
- Ki [3]: 6980 nM

B8: rhesus theta defensin-1 (RTD-1) 16, cyclo[GFCRCLCRRGVCRCICTR] (peptide)
peptide: cyclo(GFCRCLCRRGVCRCICTR)
modifications: disulfide (positions not given here); not fully specified; printed as cyclo[GFCRCLCRRGVCRCICTR]
notes: also called peptide 16; native RTD-1
- Ki [3]: 60 nM

B9: cyclo[…(OH)ALMPSGYM] (peptide)
peptide: cyclo(ATSGISYGQ[Asn(OH)]ALMPSGYM)
SMILES: CC[C@H](C)[C@@H]1NC(=O)CNC(=O)[C@H](CO)NC(=O)[C@H]([C@@H](C)O)NC(=O)[C@H](C)NC(=O)[C@H](CCSC)NC(=O)[C@H](Cc2ccc(O)cc2)NC(=O)CNC(=O)[C@H](CO)NC(=O)[C@@H]2CCCN2C(=O)[C@H](CCSC)NC(=O)[C@H](CC(C)C)NC(=O)[C@H](C)NC(=O)[C@H](CC(=O)NO)NC(=O)[C@H](CCC(N)=O)NC(=O)CNC(=O)[C@H](Cc2ccc(O)cc2)NC(=O)[C@H](CO)NC1=O
notes: also called peptide 14
- IC50 [6]: 3340 nM
- Ki [3]: 2180 nM

B10: β-amyloid precursor protein-derived inhibitory peptide (APP-IP) 8, ISYGNDALMP (peptide)
peptide: ISYGNDALMP-NH2
notes: Linear 10-mer; also called peptide 8; linear APP-IP 8
- IC50 [6]: 92 nM
- Ki [3]: 60 nM

B11: cyclo[…(OH)ALMPSGQYM] (peptide)
peptide: cyclo(ATRSGISYGQ[Asn(OH)″]ALMPSGQYM)
SMILES: CC[C@H](C)[C@@H]1NC(=O)CNC(=O)[C@H](CO)NC(=O)[C@H](CCCNC(=N)N)NC(=O)[C@H]([C@@H](C)O)NC(=O)[C@H](C)NC(=O)[C@H](CCSC)NC(=O)[C@H](Cc2ccc(O)cc2)NC(=O)[C@H](CCC(N)=O)NC(=O)CNC(=O)[C@H](CO)NC(=O)[C@@H]2CCCN2C(=O)[C@H](CCSC)NC(=O)[C@H](CC(C)C)NC(=O)[C@H](C)NC(=O)[C@H](CC(=O)NO)NC(=O)[C@H](CCC(N)=O)NC(=O)CNC(=O)[C@H](Cc2ccc(O)cc2)NC(=O)[C@H](CO)NC1=O
notes: also called peptide 15
- IC50 [6]: 354 nM
- Ki [3]: 231 nM

B12: Asn(OH)-APP-IP peptide 9, ISYGNN(OH)ALMP (peptide)
peptide: ISYGN[Asn(OH)″]ALMP-NH2
modifications: N-terminus assumed
SMILES: CC[C@H](C)[C@H](N)C(=O)N[C@@H](CO)C(=O)N[C@@H](Cc1ccc(O)cc1)C(=O)NCC(=O)N[C@@H](CC(N)=O)C(=O)N[C@@H](CC(=O)NO)C(=O)N[C@@H](C)C(=O)N[C@@H](CC(C)C)C(=O)N[C@@H](CCSC)C(=O)N1CCC[C@H]1C(N)=O
notes: Linear 10-mer; also called linear Asn(OH)-APP-IP peptide 9
- IC50 [6]: 35 nM
- fold improvement of inhibitory activity against APP-IP 8 [1]: 2.6 fold
- Ki [3]: 23 nM

B13: cyclo[ISYGQN(OH)ALMP] (peptide)
peptide: cyclo(ISYGQ[Asn(OH)″]ALMP)
SMILES: CC[C@H](C)[C@@H]1NC(=O)[C@@H]2CCCN2C(=O)[C@H](CCSC)NC(=O)[C@H](CC(C)C)NC(=O)[C@H](C)NC(=O)[C@H](CC(=O)NO)NC(=O)[C@H](CCC(N)=O)NC(=O)CNC(=O)[C@H](Cc2ccc(O)cc2)NC(=O)[C@H](CO)NC1=O
notes: also called peptide 10
- IC50 [6]: 32500 nM
- Ki [3]: 21300 nM
